Experimental data reported in patent publication US20190262327A1, “COMBINATION OF A BACE INHIBITOR AND AN ANTIBODY OR ANTIGEN-BINDING FRAGMENT FOR THE TREATMENT OF A DISORDER ASSOCIATED WITH THE ACCUMULATION OF AMYLOID BETA” (ASTRAZENECA AB, priority 2016, published 2019).

Biological target: T1, human Amyloid beta 1-42 peptide (Homo sapiens, UniProt P05067)
T1 construct: biotinylated human Amyloid beta 1-42 peptide (rpeptide, USA; cat: A1117); purchased rPeptide, USA A1117; host or cells: synthetic peptide
T1 sequence (P05067 672-713): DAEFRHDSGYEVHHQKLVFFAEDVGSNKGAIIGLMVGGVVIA
Assay: Surface Plasmon Resonance binding kinetics of IgGs (BIAcore T-100)
Details: IgG1-TM captured on protein G; 1:1 Langmuir fit
Experimental: Surface Plasmon Resonance was used to analyse the binding kinetics of the affinity-optimized IgGs (section 1.8) and their germlined counterparts (section 1.9). Briefly, the BIAcore T-100 (GE Healthcare, UK) biosensor instrument was used to assess the kinetic parameters of the interaction between each test IgG and synthetically-produced human Amyloid beta 1-42 peptide. These experiments were performed essentially as described by Karsson et al. (Karlsson et al., 1991).
The affinity of binding between each test IgG and human Amyloid beta 1-42 was estimated using assays in which each antibody was non-covalently captured by a protein G surface that was itself amine linked to a proprietary CM5 chip. The chip surface was regenerated between cycles by paired 40 second injections of 10 mM Glycine pH 2.0 to remove ligand and bound antibody. The test antibody was then reapplied for each peptide injection.
A series of dilutions of synthetic human Amyloid beta 1-42 peptide (0.063-1024 nM) were sequentially passed over the antibody surface for a sufficient amount of time to observe sensorgrams that could be fitted to an appropriate binding model with confidence. […]
The validity of the data was assessed using the calculated Chi^2 value, with an acceptable value being under 2 RU^2. […]

B1: Abet0380-GL IgG1-TM: germlined Abet0380; VH SEQ ID NO: 524, VL SEQ ID NO: 533; human IgG1 triple mutant format (antibody, listed as Homo sapiens, V domains shown)
VH: EVQLLESGGGLVQPGGSLRLSCAASMGNFNYQTMWWVRQAPGKGLEWVSVIGKTNENIAYADSVKGRFTISRDNSKNTLYLQMNSLRAEDTAVYYCAREWMDHSRPYYYYGMDVWGQGTLVTVSS
VL: SYELTQPPSVSVSPGQTASITCSGHNLEDKFASWYQQKPGQSPVLVIYRDDKRPSGIPERFSASNSGHTATLTISGTQAMDEADYYCSSQDTVTRVFGGGTKLTVL
modifications: human IgG1 triple mutant constant region; /note=“Abet0380-GL”
notes: germlined Abet0380; human IgG1 triple mutant format
association rate constant (ka): 952000 M⁻¹ s⁻¹
dissociation rate constant (kd): 0.000307 s⁻¹
